Test results reported in patent publication US20250163127A1 (published 2025).

Key:
Test in all cases: cell-based or functional assay
[1] = molecular target: T1, human CD86 (human)
T1 chain: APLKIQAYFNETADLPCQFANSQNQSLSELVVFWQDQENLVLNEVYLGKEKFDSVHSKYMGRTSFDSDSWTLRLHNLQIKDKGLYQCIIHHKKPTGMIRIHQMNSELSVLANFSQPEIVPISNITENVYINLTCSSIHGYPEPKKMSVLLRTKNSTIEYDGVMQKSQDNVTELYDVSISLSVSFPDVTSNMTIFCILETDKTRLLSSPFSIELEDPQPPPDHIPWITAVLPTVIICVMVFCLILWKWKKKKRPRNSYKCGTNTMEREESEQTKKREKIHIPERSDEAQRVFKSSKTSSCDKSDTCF

[2] = molecular target: T2, TIGIT (human, UniProt Q495A1)
T2 sequence: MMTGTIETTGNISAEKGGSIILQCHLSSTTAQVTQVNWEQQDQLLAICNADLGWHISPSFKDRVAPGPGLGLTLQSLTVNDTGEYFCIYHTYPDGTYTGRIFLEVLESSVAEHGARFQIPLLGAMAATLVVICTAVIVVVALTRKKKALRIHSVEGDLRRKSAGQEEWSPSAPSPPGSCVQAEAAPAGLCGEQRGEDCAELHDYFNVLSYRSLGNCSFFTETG

[3] = molecular target: PD-1 (human, UniProt Q15116)
[4] = molecular target: CD2 (human, UniProt P06729)

100 nM IFN-gamma (pg/mL), SEB assay [1] [pg/mL]	100 nM IFN-gamma (pg/mL), SEB assay [2] [pg/mL]	100 nM IFN-gamma (pg/mL), SEB assay [3] [pg/mL]	100 nM IFN-gamma (pg/mL), SEB assay [4] [pg/mL]	Binder
		9820	9820	PD-L1 303-CD58 3650-Fc (Fc fusion) FTVTVPKDLYVVEYGSNMTIECKFPVEKQLDLAALIVYWEMEGKDIIQFVHGEEDQKAQHSSYRQRARLLKDQLSLGNAALQITDVKLQDAGVYRCMISYGGGADYKRITVKVNAGGGGSGGGGSGGGGSSQQIYGVVYGNVTFHVPSNVPLKEVLWKKQKDKVAELENSEFRAFSSFKNRVYLDTVSGSLTIYNLTSSDEDEYEMESPNITDTMKFFLYVLESGSGGGGSEPKSSDKTHTCPPCPAPEAEGAPSVFLFPPKPKDTLMISRTPEVTCVVVDVSHEDPEVKFNWYVDGVEVHNAKTKPREEQYNSTYRVVSVLTVLHQDWLNGKEYKCKVSNKALPAPIEKTISKAKGQPREPQVYTLPPSRDELTKNQVSLTCLVKGFYPSDIAVEWESNGQPENNYKTTPPVLDSDGSFFLYSKLTVDKSRWQQGNVFSCSVMHEALHNHYTQKSLSLSPG
		8620	8620	PD-L1 303-PD-L1 303-CD58 3650-CD58 3650 (other) FTVTVPKDLYVVEYGSNMTIECKFPVEKQLDLAALIVYWEMEGKDIIQFVHGEEDQKAQHSSYRQRARLLKDQLSLGNAALQITDVKLQDAGVYRCMISYGGGADYKRITVKVNAGGGGSGGGGSGGGGSFTVTVPKDLYVVEYGSNMTIECKFPVEKQLDLAALIVYWEMEGKDIIQFVHGEEDQKAQHSSYRQRARLLKDQLSLGNAALQITDVKLQDAGVYRCMISYGGGADYKRITVKVNAGGGGSGGGGSGGGGSSQQIYGVVYGNVTFHVPSNVPLKEVLWKKQKDKVAELENSEFRAFSSFKNRVYLDTVSGSLTIYNLTSSDEDEYEMESPNITDTMKFFLYVLESGSGGSGGGGSGGGGSSQQIYGVVYGNVTFHVPSNVPLKEVLWKKQKDKVAELENSEFRAFSSFKNRVYLDTVSGSLTIYNLTSSDEDEYEMESPNITDTMKFFLYVLESGSGGGGSDYKDDDDKHHHHHH
	10300			CD 155 665 G4S FLAGHis (ligand) WPPPGTGDVVVQAPTQVSGFLGDSVTLPCYLQVPNMEVTHVSQLTWARHGESGSMAVFHQTQGPWYAESKRLEFVAARLGAELRNASLRVFGLRAEDEGNYTCQFVTFPQRSRSVDIWLRVLGGGGSDYKDDDDKHHHHHH
1900	1900			CTLA-4 3060-CD155 665-Fc (Fc fusion) KAMHVAQPAVVFASSHGIASFVCEYASPWKATEVRVTVLRQADSQVTEVCAATYMTGNELTFLDDSICTGTSSGNQVNLTIQGLRAMDTGLYICKVEQMYPPPYLLGIGNGTQIYVIDPEPCPDSDGGGGSGGGGSGGGGSWPPPGTGDVVVQAPTQVSGFLGDSVTLPCYLQVPNMEVTHVSQLTWARHGESGSMAVFHQTQGPWYAESKRLEFVAARLGAELRNASLRVFGLRAEDEGNYTCQFVTFPQRSRSVDIWLRVLGSGGGGSEPKSSDKTHTCPPCPAPEAEGAPSVFLFPPKPKDTLMISRTPEVTCVVVDVSHEDPEVKFNWYVDGVEVHNAKTKPREEQYNSTYRVVSVLTVLHQDWLNGKEYKCKVSNKALPAPIEKTISKAKGQPREPQVYTLPPSRDELTKNQVSLTCLVKGFYPSDIAVEWESNGQPENNYKTTPPVLDSDGSFFLYSKLTVDKSRWQQGNVFSCSVMHEALHNHYTQKSLSLSPG
7350	7350	7350		PD-L1 303-CD155 665-CTLA-4 3037-Fc (Fc fusion) FTVTVPKDLYVVEYGSNMTIECKFPVEKQLDLAALIVYWEMEGKDIIQFVHGEEDQKAQHSSYRQRARLLKDQLSLGNAALQITDVKLQDAGVYRCMISYGGGADYKRITVKVNAGGGGSGGGGSGGGGSWPPPGTGDVVVQAPTQVSGFLGDSVTLPCYLQVPNMEVTHVSQLTWARHGESGSMAVFHQTQGPWYAESKRLEFVAARLGAELRNASLRVFGLRAEDEGNYTCQFVTFPQRSRSVDIWLRVLGGGGSGGGGSGGGGSKAMHVAQPAVVFASSHGIASFVCEYASPWKATEVRVTVLRQADSQVTEVCAATYMTGNELTFLDDSICTGTSSGNQVNLTIQGLRAMDTGLYICKVEQMYPPPYLLGIGNGTQIYVIDPEPCPDSDGSGGGGSEPKSSDKTHTCPPCPAPEAEGAPSVFLFPPKPKDTLMISRTPEVTCVVVDVSHEDPEVKFNWYVDGVEVHNAKTKPREEQYNSTYRVVSVLTVLHQDWLNGKEYKCKVSNKALPAPIEKTISKAKGQPREPQVYTLPPSRDELTKNQVSLTCLVKGFYPSDIAVEWESNGQPENNYKTTPPVLDSDGSFFLYSKLTVDKSRWQQGNVFSCSVMHEALHNHYTQKSLSLSPG

The remaining lines, values behind:

Binder	100 nM IFN-gamma (pg/mL), SEB assay [1] [pg/mL]	100 nM IFN-gamma (pg/mL), SEB assay [2] [pg/mL]	100 nM IFN-gamma (pg/mL), SEB assay [3] [pg/mL]	100 nM IFN-gamma (pg/mL), SEB assay [4] [pg/mL]
CD155 665-CTLA-4 3037-Fc (Fc fusion) WPPPGTGDVVVQAPTQVSGFLGDSVTLPCYLQVPNMEVTHVSQLTWARHGESGSMAVFHQTQGPWYAESKRLEFVAARLGAELRNASLRVFGLRAEDEGNYTCQFVTFPQRSRSVDIWLRVLGGGGSGGGGSGGGGSKAMHVAQPAVVFASSHGIASFVCEYASPWKATEVRVTVLRQADSQVTEVCAATYMTGNELTFLDDSICTGTSSGNQVNLTIQGLRAMDTGLYICKVEQMYPPPYLLGIGNGTQIYVIDPEPCPDSDGSGGGGSEPKSSDKTHTCPPCPAPEAEGAPSVFLFPPKPKDTLMISRTPEVTCVVVDVSHEDPEVKFNWYVDGVEVHNAKTKPREEQYNSTYRVVSVLTVLHQDWLNGKEYKCKVSNKALPAPIEKTISKAKGQPREPQVYTLPPSRDELTKNQVSLTCLVKGFYPSDIAVEWESNGQPENNYKTTPPVLDSDGSFFLYSKLTVDKSRWQQGNVFSCSVMHEALHNHYTQKSLSLSPG	4310	4310		
CD58 3650-CD58 3650-PD-L1 303-PD-L1 303 (other) SQQIYGVVYGNVTFHVPSNVPLKEVLWKKQKDKVAELENSEFRAFSSFKNRVYLDTVSGSLTIYNLTSSDEDEYEMESPNITDTMKFFLYVLESGGGGSGGGGSGGGGSSQQIYGVVYGNVTFHVPSNVPLKEVLWKKQKDKVAELENSEFRAFSSFKNRVYLDTVSGSLTIYNLTSSDEDEYEMESPNITDTMKFFLYVLESGGGGSGGGGSGGGGSFTVTVPKDLYVVEYGSNMTIECKFPVEKQLDLAALIVYWEMEGKDIIQFVHGEEDQKAQHSSYRQRARLLKDQLSLGNAALQITDVKLQDAGVYRCMISYGGGADYKRITVKVNAGSGGSGGGGSGGGGSFTVTVPKDLYVVEYGSNMTIECKFPVEKQLDLAALIVYWEMEGKDIIQFVHGEEDQKAQHSSYRQRARLLKDQLSLGNAALQITDVKLQDAGVYRCMISYGGGADYKRITVKVNAGSGGGGSDYKDDDDKHHHHHH			6030	6030
CD155 665-CD58 3650-Fc (Fc fusion) WPPPGTGDVVVQAPTQVSGFLGDSVTLPCYLQVPNMEVTHVSQLTWARHGESGSMAVFHQTQGPWYAESKRLEFVAARLGAELRNASLRVFGLRAEDEGNYTCQFVTFPQRSRSVDIWLRVLGGGGSGGGGSGGGGSSQQIYGVVYGNVTFHVPSNVPLKEVLWKKQKDKVAELENSEFRAFSSFKNRVYLDTVSGSLTIYNLTSSDEDEYEMESPNITDTMKFFLYVLESGSGGGGSEPKSSDKTHTCPPCPAPEAEGAPSVFLFPPKPKDTLMISRTPEVTCVVVDVSHEDPEVKFNWYVDGVEVHNAKTKPREEQYNSTYRVVSVLTVLHQDWLNGKEYKCKVSNKALPAPIEKTISKAKGQPREPQVYTLPPSRDELTKNQVSLTCLVKGFYPSDIAVEWESNGQPENNYKTTPPVLDSDGSFFLYSKLTVDKSRWQQGNVFSCSVMHEALHNHYTQKSLSLSPG		5850		5850
CD58 3650-PD-L1 303-Fc (Fc fusion) SQQIYGVVYGNVTFHVPSNVPLKEVLWKKQKDKVAELENSEFRAFSSFKNRVYLDTVSGSLTIYNLTSSDEDEYEMESPNITDTMKFFLYVLESGGGGSGGGGSGGGGSFTVTVPKDLYVVEYGSNMTIECKFPVEKQLDLAALIVYWEMEGKDIIQFVHGEEDQKAQHSSYRQRARLLKDQLSLGNAALQITDVKLQDAGVYRCMISYGGGADYKRITVKVNAGSGGGGSEPKSSDKTHTCPPCPAPEAEGAPSVFLFPPKPKDTLMISRTPEVTCVVVDVSHEDPEVKFNWYVDGVEVHNAKTKPREEQYNSTYRVVSVLTVLHQDWLNGKEYKCKVSNKALPAPIEKTISKAKGQPREPQVYTLPPSRDELTKNQVSLTCLVKGFYPSDIAVEWESNGQPENNYKTTPPVLDSDGSFFLYSKLTVDKSRWQQGNVFSCSVMHEALHNHYTQKSLSLSPG			5440	5440
CD58 3650-PD-L1 303-PD-L1 303-CD58 3650 (other) SQQIYGVVYGNVTFHVPSNVPLKEVLWKKQKDKVAELENSEFRAFSSFKNRVYLDTVSGSLTIYNLTSSDEDEYEMESPNITDTMKFFLYVLESGGGGSGGGGSGGGGSFTVTVPKDLYVVEYGSNMTIECKFPVEKQLDLAALIVYWEMEGKDIIQFVHGEEDQKAQHSSYRQRARLLKDQLSLGNAALQITDVKLQDAGVYRCMISYGGGADYKRITVKVNAGGGGSGGGGSGGGGSFTVTVPKDLYVVEYGSNMTIECKFPVEKQLDLAALIVYWEMEGKDIIQFVHGEEDQKAQHSSYRQRARLLKDQLSLGNAALQITDVKLQDAGVYRCMISYGGGADYKRITVKVNAGSGGSGGGGSGGGGSSQQIYGVVYGNVTFHVPSNVPLKEVLWKKQKDKVAELENSEFRAFSSFKNRVYLDTVSGSLTIYNLTSSDEDEYEMESPNITDTMKFFLYVLESGSGGGGSDYKDDDDKHHHHHH			16200	16200
